According to patent publication US20220153822A1 (ALYTAS THERAPEUTICS, published 2022):
Numbering of substitutions follows the chain as printed.

T1: Perilipin epitope 1 peptide NKGLTLLDGDLPEQE (SEQ ID NO. 330) (human, Biotin-PEG Spacer and GGSGGS Linker (SEQ ID NO. 438) at the N-terminus, or Biotin-PEG Spacer and AAAAA Linker (SEQ ID NO. 439) at the C-terminus)
T1 construct: Two biotinylated variants were used for selection and ELISA; On the peptide array it stood without biotin; also called target peptide
T1 peptide: NKGLTLLDGDLPEQE

T2: Perilipin epitope 5 peptide AKPSLLSRVGALTNT (SEQ ID NO. 332) (human, Biotin-PEG Spacer and GGSGGS Linker (SEQ ID NO. 438) at the N-terminus, or Biotin-PEG Spacer and AAAAA Linker (SEQ ID NO. 439) at the C-terminus)
T2 construct: Two biotinylated variants were used for selection and ELISA; On the peptide array it stood without biotin; also called target peptide
T2 peptide: AKPSLLSRVGALTNT

T3: Perilipin epitope 2 peptide QYPPEKIASELKDTI (SEQ ID NO. 331) (human, Biotin-PEG Spacer and GGSGGS Linker (SEQ ID NO. 438) at the N-terminus, or Biotin-PEG Spacer and AAAAA Linker (SEQ ID NO. 439) at the C-terminus)
T3 construct: Two biotinylated variants were used for selection and ELISA; On the peptide array it stood without biotin; also called target peptide
T3 peptide: QYPPEKIASELKDTI

B1: Antibody No. 5 (antibody, V domains shown)
VH: QVQLVESGGGVVQPGRSLRLSCAASGFTFSSYAMHWVRQAPGKGLEWVAVISYDGSNKYYADSVKGRFTISRDNSKNTLYLQMNSLRAEDTAVYYCARIAAAGPFDYWGQGTLVTVSS
VL: SYVLTQPPSVSEAPRQRVTISCSGSSSNIGNNAVNWYQQLPGKAPKLLIYYDDLLPSGVSDRFSGSKSGTSASLAISGLQSEDEADYYCAAWDDSLNGVVFGGGTKLTVL
notes: human IgG1, lambda or kappa light chain; also called 438-G12; antibody #5
B2: Antibody No. 14 (antibody, V domains shown)
VH: QVQLVESGGGLVQPGRSLRLSCAASGFTFDDYAMHWVRQAPGKGLEWVSGISWNSGSIGYADSVKGRFTISRDNAKNSLYLQMNSLRAEDTALYYCAKEGYGNDAFDIWGQGTMVTVSS
VL: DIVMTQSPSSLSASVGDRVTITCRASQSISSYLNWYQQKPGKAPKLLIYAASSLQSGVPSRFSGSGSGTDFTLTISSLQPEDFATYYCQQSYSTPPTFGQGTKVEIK
notes: human IgG1, lambda or kappa light chain; also called 432-H10
B3: Antibody No. 7 (antibody, V domains shown)
VH: QVQLVQSGGSVVQPGRSLRLSCAASGFTFSSYAMHWVRQAPGKGLEWVAVISYDGSNKYYADSVKGRFTISRDNSKNTLYLQMNSLRAEDTAVYYCARFASIAARPFDYWGQGTLVTVSS
VL: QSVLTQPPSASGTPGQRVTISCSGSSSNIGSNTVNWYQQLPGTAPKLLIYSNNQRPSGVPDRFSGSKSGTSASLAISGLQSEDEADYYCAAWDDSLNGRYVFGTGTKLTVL
notes: human IgG1, lambda or kappa light chain; also called 448-D02
B4: Antibody No. 36 (antibody, V domains shown)
VH: EVQLVESGGGVVQPGRSLRLSCAASGFTFSSYAMHWVRQAPGKGLEWVAVISYDGSNKYYADSVKGRFTISRDNSKNTLYLQMNSLRAEDTAVYYCARDPLYGMDVWGQGTLVTVSS
VL: QSVLTQPPSASGSPGQSVTISCTGTSSDVGNYNYVSWFQQHPGKAPKLMIYEVSKRPSGVPDRFSGSKSGNTASLTVSGLQAEDEADYYCASYADSNNLYVFGTGTKLTVL
notes: human IgG1, lambda or kappa light chain; also called 447-B03
B5: Antibody No. 9 (antibody, V domains shown)
VH: B4 VH with E1Q, E6Q, A33G, R98N, D99N, L101S, Y102S, M104A, V106Y
VL: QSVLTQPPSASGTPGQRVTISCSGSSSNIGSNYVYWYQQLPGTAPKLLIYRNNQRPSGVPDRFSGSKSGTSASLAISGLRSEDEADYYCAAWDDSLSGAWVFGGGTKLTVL
notes: human IgG1, lambda or kappa light chain; also called 448-G01
B6: Antibody No. 22 (antibody, V domains shown)
VH: QVQLVESGGGVVQPGRSLRLSCAASGFTFSSYGMHWVRQAPGKGLEWVAVISYDGSNKYYADSVKGRFTISRDNSKNTLYLQMNSLRAEDTAVYYCANTPGGLTPFDYWGQGTLVTVSS
VL: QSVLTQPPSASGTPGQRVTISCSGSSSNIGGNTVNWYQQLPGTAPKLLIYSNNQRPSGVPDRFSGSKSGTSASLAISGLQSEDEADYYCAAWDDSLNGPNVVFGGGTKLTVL
notes: human IgG1, lambda or kappa light chain; also called 447-H03
B7: Antibody No. 6 (antibody, V domains shown)
VH: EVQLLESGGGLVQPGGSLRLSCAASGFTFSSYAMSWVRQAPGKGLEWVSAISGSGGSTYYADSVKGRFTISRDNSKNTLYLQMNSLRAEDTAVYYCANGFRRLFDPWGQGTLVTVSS
VL: QSALTQPASVSGSPGQSITISCTGTSSDVGGYNYVSWYQQHPGKAPKLMIYDVSNRPSGVSNRFSGSKSGNTASLTISGLQAEDEADYYCSSYTSSSTHVVFGGGTKLTVL
notes: human IgG1, lambda or kappa light chain; also called 448-B03
B8: Antibody No. 17 (antibody, V domains shown)
VH: EVQLVQSGGGVVQPGRSLRLSCAASGFTFSSYGMHWVRQAPGKGLEWVAVISYDGSNKYYADSVKGRFTISRDNSKNTLYLQMNSLRAEDTAVYYCAKDIFMDVWGQGTMVTVSS
VL: B7 VL with H99L
notes: human IgG1, lambda or kappa light chain; also called 447-C04
B9: Antibody No. 18 (antibody, V domains shown)
VH: EVQLLESGGGLVQPGRSLRLACVASGFTFDDYGMHWVRQAPGKGLEWVAVISYDGSNKYYADSVKGRFTISRDNSKNTLYLQMNSLRAEDTAVYYCAKAYGEGGFDPWGQGTLVTVSS
VL: B7 VL with D52E, H99T, V100W, L108V
notes: human IgG1, lambda or kappa light chain; also called 447-D03
B10: Antibody No. 37 (antibody, V domains shown)
VH: QVQLVQSGAEVKKPGASVKVSCKASGYTFTSYYMHWVRQAPGQGLEWMGIINPSGGSTSYAQKFQGRVTMTRDTSTSTVYMELSSLRSEDTAVYYCARDSYYDSSGYYYADAFDIWGQGTMVTVSS
VL: QSVLTQPPSVSGAPGQRVTISCTGSSSNIGAGYDVHWYQQLPGTAPKLLIYGNSNRPSGVPDRFSGSKSGTSASLAITGLQAEDEADYYCQSYDSSLSGDVVFGGGTKLTVL
notes: human IgG1, lambda or kappa light chain; also called 447-F02
B11: Antibody No. 38 (antibody, V domains shown)
VH: EVQLVQSGAEVKKPGASVKVSCKASGYTFTSYYMHWVRQAPGQGLEWMGIINPSGGSTSYAQKFQGRVTMTRDTSTSTVYMELSSLRSEDTAVYYCARNVPGDYEVGFDYWGQGTLVTVSS
VL: QSVLTQPPSVSGAPGQRVTISCTGSSSNIGAGYDVHWYQQLPGTAPKLLIYGNSNRPSGVPDRFSGSKSGTSASLAITGLQAEDEADYYCQSYDSSLSAVVFGGGTKLTVL
notes: human IgG1, lambda or kappa light chain; also called 447-A05
B12: Antibody No. 11 (antibody, V domains shown)
VH: QVQLVQSGAEVKKPGASVKVSCKASGYTFTSYGISWVRQAPGQGLEWMGWISAYNGNTNYAQKLQGRVTMTTDTSTSTAYMELRSLRSDDTAVYYCASLYCSGGSCYSALDPWGQGTLVTVSS
VL: B11 VL with S98R, A99Y, L108V
notes: human IgG1, lambda or kappa light chain; also called 447-D12
B13: Antibody No. 16 (antibody, V domains shown)
VH: QVQLVEFGGGVVQPGRSLRLSCAASGFTFSSYGMHWVRQAPGKGLEWVAAISYDGSNKYYADSVKGRFTISRDNSKNTLYLQMNSLRAEDTAVYYCAKDMGLSWYGEFDYWGQGTLVTVSS
VL: QSVLTQPPSVSEAPRQRVTISCSGSSSNIGNNAVSWYQQLPGKAPKLLIYYDDLLPSGVSDRFSGSKSGTSASLAISGLQSEDEADYYCAAWDDSLNWVFGGGTKLTVL
notes: human IgG1, lambda or kappa light chain; also called 447-B05
B14: Antibody No. 19 (antibody, V domains shown)
VH: QVQLVQSGGGVVQPRRSLRLSCAASGFTFSSYAMHWVRQAPGKGLEWVAVISYDGSNKYYADPVKGRFTISRDNSKNTLYLQMNSLRAEDTAVYYCARGGDGYNWDAFDIWGQGTMVTVSS
VL: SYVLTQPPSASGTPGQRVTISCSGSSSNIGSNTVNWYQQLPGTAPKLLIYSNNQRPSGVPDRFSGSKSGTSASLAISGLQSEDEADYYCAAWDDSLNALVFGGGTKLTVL
notes: human IgG1, lambda or kappa light chain; also called 447-D04
B15: Antibody No. 10 (antibody, V domains shown)
VH: EVQLVQSGAEVKKPGSSVKISCKASGGTFSSYAISWVRQAPGQGLEWMGGIIPIFGTANYAQKFQGRVTITADESTSTAYMELSSLRSEDTAVYYCARSHSSGWEWWGQGTLVTVSS
VL: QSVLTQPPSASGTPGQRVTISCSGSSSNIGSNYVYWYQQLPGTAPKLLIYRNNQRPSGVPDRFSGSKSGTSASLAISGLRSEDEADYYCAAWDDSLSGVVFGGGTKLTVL
notes: human IgG1, lambda or kappa light chain; also called 439-E10
B16: Antibody No. 8 (antibody, V domains shown)
VH: QVQLVESGAEVKKPGASVKVSCKASGYTFTSYGISWVRQAPGQGLEWMGWISAYNGNTNYAQKLQGRVTMTTDTSTSTAYMELRSLRSDDTAVYYCARGGSSSNYWGQGTLVTVSS
VL: QSALTQPASVSGSPGQSITISCTGTSSDVGGYNYVSWYQQHPGKAPKLMIYEVSNRPSGVSNRFSGSKSGNTASLTISGLQAEDEADYYCSSYTSSSTLVFGGGTKLTVL
notes: human IgG1, lambda or kappa light chain; also called 448-E03
B17: Antibody No. 21 (antibody, V domains shown)
VH: QVQLVESGGGLVQPGRSLRLSCAASGFTFDDYAMHWVRQAPGKGLEWVSGISWNSGSIGYADSVKGRFTISRDNAKNSLYLQMNSLRAEDTALYYCAKEGEYSYGGGEFDPWGQGTLVTVSS
VL: B16 VL with E52D, L99W
notes: human IgG1, lambda or kappa light chain; also called 447-G03

Assays:
Experiment in all cases: phage display selection and ELISA on biotinylated target peptide
[1] = target: T1, Perilipin epitope 1 peptide …
[2] = target: T2, Perilipin epitope 5 peptide …
[3] = target: T3, Perilipin epitope 2 peptide …

| Binder | binding result [2] | further results |
| --- | --- | --- |
| B1 | – | binding result [1]: binds |
| B2 | binds | – |
| B3 | – | binding result [1]: binds |
| B4 | binds | – |
| B5 | – | binding result [1]: binds |
| B6 | binds | – |
| B7 | – | binding result [1]: binds |
| B8 | binds | – |
| B9 | binds | – |
| B10 | binds | – |
| B11 | binds | – |
| B12 | – | binding result [3]: binds |
| B13 | binds | – |
| B14 | binds | – |
| B15 | – | binding result [3]: binds |
| B16 | – | binding result [1]: binds |
| B17 | binds | – |
